The text below walks through data of patent US20170342107A1.

For test [1], the target named is mouse melanocortin-3 receptor (mouse) (UniProt P33033). Kind of test: 125I-NDP-MSH competitive displacement, HEK293 cells stably expressing mMC3R.
In test [2] the target is mouse melanocortin-4 receptor (mouse) (UniProt P56450). Kind of test: 125I-NDP-MSH competitive displacement, HEK293 cells stably expressing mMC4R.
For test [3] the target is unchanged. Kind of test: cell-based or functional assay.
Test [4] has as its target mouse melanocortin-3 receptor (mouse) (UniProt P33033). Description: cell-based or functional assay.
The target is the same in test [5]. Description: 125I-NDP-MSH competitive displacement, HEK293 cells stably expressing mMC3R; negative = more potent than control.
Test [6] concerns the target mouse melanocortin-4 receptor (mouse) (UniProt P56450). Kind of test: 125I-NDP-MSH competitive displacement, HEK293 cells stably expressing mMC4R; negative = more potent than control.
Test [7] shares this target. Description: 125I-NDP-MSH competitive displacement, HEK293 cells stably expressing mMC4R; here negative = weaker binder than SKY4-48-1.

Sequence of mouse melanocortin-4 receptor (mouse) (P56450 whole entry): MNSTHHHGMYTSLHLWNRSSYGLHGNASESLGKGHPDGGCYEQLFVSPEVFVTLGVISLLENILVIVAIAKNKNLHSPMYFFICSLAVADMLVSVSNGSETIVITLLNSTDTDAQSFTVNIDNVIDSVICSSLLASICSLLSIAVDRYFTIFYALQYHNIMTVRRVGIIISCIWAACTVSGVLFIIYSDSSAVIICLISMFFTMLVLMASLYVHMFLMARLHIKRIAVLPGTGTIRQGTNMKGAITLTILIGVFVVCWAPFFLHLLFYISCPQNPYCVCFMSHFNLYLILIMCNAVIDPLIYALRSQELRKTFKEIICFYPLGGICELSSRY
Sequence of mouse melanocortin-3 receptor (mouse) (P33033 whole entry): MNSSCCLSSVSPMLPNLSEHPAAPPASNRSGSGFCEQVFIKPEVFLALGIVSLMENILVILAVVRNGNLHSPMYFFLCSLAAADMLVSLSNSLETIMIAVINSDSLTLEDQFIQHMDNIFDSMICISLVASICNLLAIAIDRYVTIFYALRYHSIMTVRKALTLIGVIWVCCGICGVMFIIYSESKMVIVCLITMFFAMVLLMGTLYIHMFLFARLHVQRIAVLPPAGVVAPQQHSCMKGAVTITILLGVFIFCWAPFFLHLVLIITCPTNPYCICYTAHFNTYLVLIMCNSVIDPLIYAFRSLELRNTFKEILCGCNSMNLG

As for “SKY4-48-18, Ac-Arg-Arg-(pI)DPhe-Tic-NH2 (peptide)”, the figures for the IC50 in test [1] and in test [2] were 550 nM and 13 nM, respectively. Further, the Agonist Activity EC50 in test [3] is more than 100000 nM; in test [4], 16 nM. The substance further had an Antagonist Activity K in test [3] of 16 nM. This substance had an Antagonist Ki in test [3] of 15 nM. Besides, the Fold Diff. (IC50 against SKY4-48-1) in test [5] is -92 fold; in test [6], -9 fold.
As for “SKY4-48-23, Ac-Phe-Arg-(pI)DPhe-Tic-NH2 (peptide)”, the IC50 in test [1] stood at 2500 nM; in test [2] it was 135 nM. Further, the Fold Diff. (IC50 against SKY4-48-1) in test [5] was -20 fold; in test [6], 1 fold.
Take “SKY4-48-42, Ac-Arg-Arg-(pI)DPhe-DNal(2')-NH2 (peptide)”: the values for the 50% inhibitory concentration (IC50) in test [1] and in test [2] were 440 nM and 220 nM, respectively. Besides, the Agonist Activity EC50 in test [3] was more than 100000 nM; in test [4] it was 57 nM. The Antagonist Activity K in test [3] is 400 nM. The Fold Diff. (IC50 against SKY4-48-1) in test [5] is -115 fold; in test [6] it was 2 fold.
Regarding “SKY5-122-1, Ac-DTic-(pI)Phe-DArg-DHis-NH2 (peptide)”, in test [1], the Fold Diff. (IC50 against SKY4-48-1) came out at 64 fold and the IC50 worked out at 800 nM. In addition, the IC50 in test [2] stood at 6700 nM. This substance also displayed a Fold Diff. (IC50 against SKY4-48-1) in test [7] of -55 fold. In test [3], this substance had an Agonist Activity, % stimulation relative to maximum of 42 % @ 100 µM; an Agonist, % of NDP-MSH maximal response of 42 % @ 100 µM; an Antagonist Ki of more than 3100 nM; a pA2 (antagonist) of 5.5 pA2. In test [4], the Agonist Activity EC50 is more than 100000 nM, the Antagonist Activity K was determined as 63 nM and the pA2 (antagonist) was determined as 7.2 pA2.
Consider “SKY6-24-2, Ac-His-Arg-(pI)DPhe-Tic-NH2 (peptide)”, for which the IC50 in test [1] is 975 nM. In addition, the IC50 in test [2] was found to be 83 nM. In addition, in test [3], the Agonist Activity EC50 is more than 100000 nM, the Antagonist Activity K is 100 nM and the pA2 (antagonist) stood at 7 pA2. Besides, in test [4], the Agonist Activity EC50 was 40 nM and the fold increase in agonist potency against SKY5-146-7 is 12 fold. In test [5], this substance gave a Fold Diff. (IC50 against SKY4-48-1) of -52 fold. The Fold Diff. (IC50 against SKY4-48-1) in test [6] was 1 fold.
Take “SKY6-24-3, Ac-DNal(2')-Arg-(pI)DPhe-Tic-NH2 (peptide)”: the IC50 amounted to 420 nM in test [1] and 43 nM in test [2]. The substance also had an Agonist, % of NDP-MSH maximal response in test [3] of 32 % @ 100 µM. Further, the figures for the Fold Diff. (IC50 against SKY4-48-1) in test [5] and in test [6] were -120 fold and -3 fold, respectively.
